For experiment [1], the target named is HA-PKBα (haemagglutinin epitope-tagged human PKBα expressed in 293 cells) (human) (UniProt P31749). The experiment can be described thus: cell-based or functional assay.
Experiment [2] addresses GST-PKBα (full length human protein kinase Bα with N-terminal glutathione S-transferase, from unstimulated 293 cells) (human) [GST: P08515]. The experiment can be described thus: cell-based or functional assay.

Chain of GST-PKBα (full length human protein kinase Bα with N-terminal glutathione S-transferase, from unstimulated 293 cells) (human) [GST: P08515] (P08515 1-218, tags or fused parts left off): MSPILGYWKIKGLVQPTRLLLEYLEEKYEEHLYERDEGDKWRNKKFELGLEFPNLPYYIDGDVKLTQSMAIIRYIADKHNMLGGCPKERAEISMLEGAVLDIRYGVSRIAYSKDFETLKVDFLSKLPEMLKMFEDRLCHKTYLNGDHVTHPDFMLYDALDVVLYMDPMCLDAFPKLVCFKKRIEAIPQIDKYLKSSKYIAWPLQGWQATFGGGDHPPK
Chain of HA-PKBα (haemagglutinin epitope-tagged human PKBα expressed in 293 cells) (human) (P31749 whole entry): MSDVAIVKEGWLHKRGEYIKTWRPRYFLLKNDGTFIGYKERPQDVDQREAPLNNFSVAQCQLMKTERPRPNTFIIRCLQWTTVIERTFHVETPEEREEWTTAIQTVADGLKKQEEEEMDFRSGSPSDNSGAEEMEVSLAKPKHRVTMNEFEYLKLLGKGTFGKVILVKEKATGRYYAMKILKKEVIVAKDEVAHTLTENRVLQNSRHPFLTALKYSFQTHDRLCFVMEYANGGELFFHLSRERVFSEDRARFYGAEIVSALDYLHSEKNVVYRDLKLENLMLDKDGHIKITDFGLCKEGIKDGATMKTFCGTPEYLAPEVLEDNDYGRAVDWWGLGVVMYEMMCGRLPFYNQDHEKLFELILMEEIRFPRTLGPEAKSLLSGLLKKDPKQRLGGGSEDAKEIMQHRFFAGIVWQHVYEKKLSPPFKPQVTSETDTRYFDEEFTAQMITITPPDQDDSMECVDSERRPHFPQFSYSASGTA

In experiment [1], “Myc-PDK1 (N-terminal Myc epitope-tagged human PDK1, residues 52-556, expressed in 293 cells) (from UniProt O15530 52-556) (enzyme)” displayed a Thr308 phosphorylation of HA-PKBα in unstimulated cotransfected 293 cells, relative to IGF1-stimulated cells with HA-PKBα alone of 70%; an activity of HA-PKBα immunoprecipitated from cotransfected 293 cells after IGF-1 of 70 fold; an activity of HA-PKBα immunoprecipitated from cotransfected, unstimulated 293 cells of 20 fold; a further increase of Thr308 phosphorylation of HA-PKBα in cotransfected cells in response to IGF1 of 4 fold.

On to “PtdIns(3,4,5)P3-dependent protein kinase-1 (PDK1) purified from rabbit skeletal muscle (enzyme)”, for which, in experiment [2], the fold activation with sn-1,2-dipalmitoyl D-PtdIns(3,4,5)P3 turned out to be 5.5 fold; the fold activation with sn-1-stearoyl, 2-arachidonyl D-PtdIns(3,4,5)P3 (lipid 1) is 13 fold; the fold activation with sn-2-arachidonyl, 3-stearoyl D-PtdIns(3,4,5)P3 was 16 fold; the fold activation with sn-2-arachidonyl, 3-stearoyl L-PtdIns(3,4,5)P3 was 2.3 fold. This substance also registered a fold activation with the L-enantiomer of sn-1-stearoyl, 2-arachidonyl PtdIns(3,4,5)P3 in experiment [2] of 1.7 fold.

Values taken from patent publication US20050032185A1.
